# Test results as given in patent US20060294600A1.
# Target: Runx2 expressed from pCMV5 Cbfa1 in transfected cells
# Experiment: cell-based or functional assay
substance,measurement,value
Fhl2 expressed from pCMX Fhl2 in Cos-7 cells (from UniProt Q14192 1-279),"transcriptional activity of Runx2 (luciferase reporter, transient transfection in Cos-7 cells; 6xOSE2 artificial promoter and human osteocalcin promoter)",3 fold
